± gives the uncertainty stated by the source.
B1: Lysine-specific demethylase 2B, residues 656 to 722; numbered along this chain, Q8NHM5 (parent)
chain: LPHTAVCLVCGEAGKEDTVEEEEGKFNLMLMECSICNEIIHPGCLKIKESEGVVNDELPNCWECPKC

Variants of: B1
Experiment: abundance fitness (aPCA) (normalised: wild type 0, dead -1); higher = more abundant; growth selection in yeast, the domain comes from the species named
Details: Homo sapiens

Compared with LPHTAVCLVCGEAGKEDTVEEEEGKFNLMLMECSVCNEIIHPGCLKIKESEGVVNDELPNCWECPKC [I35V], LPHTAVCLVCGEAGKEDTVEEEEGKFNLMLMECSPCNEIIHPGCLKIKESEGVVNDELPNCWECPKC [I35P] is lower in abundance fitness: 0.037 ± 0.096 for the first, -1.07 ± 0.3 for the second.

LPHTAVCLVCGEAGKEDTVEEEEGKFNLMLMECSWCNEIIHPGCLKIKESEGVVNDELPNCWECPKC [I35W] and LPHTAVCLVCGEAGKEDTVEEEEGKFNLMLMECSDCNEIIHPGCLKIKESEGVVNDELPNCWECPKC [I35D] are within error of each other in abundance fitness: -0.643 ± 0.12 for the first, -0.323 ± 0.2 for the second.

LPHTAVCLVCGEAGKEDTVEEEEGKFNLMLMECSGCNEIIHPGCLKIKESEGVVNDELPNCWECPKC [I35G] and LPHTAVCLVCGEAGKEDTVEEEEGKFNLMLMECSQCNEIIHPGCLKIKESEGVVNDELPNCWECPKC [I35Q] are within error of each other in abundance fitness: -0.14 ± 0.11 for the first, -0.149 ± 0.091 for the second.

Going from LPHTAVCLVCGEAGKEDTVEEEEGKFNLMLMECSNCNEIIHPGCLKIKESEGVVNDELPNCWECPKC [I35N] to LPHTAVCLVCGEAGKEDTVEEEEGKFNLMLMECSTCNEIIHPGCLKIKESEGVVNDELPNCWECPKC [I35T], the abundance fitness rises from -0.295 ± 0.23 to 0.147 ± 0.15.

Compared with LPHTAVCLVCGEAGKEDTVEEEEGKFNLMLMECSECNEIIHPGCLKIKESEGVVNDELPNCWECPKC [I35E], LPHTAVCLVCGEAGKEDTVEEEEGKFNLMLMECSKCNEIIHPGCLKIKESEGVVNDELPNCWECPKC [I35K] is higher in abundance fitness: -0.399 ± 0.22 for the first, -0.057 ± 0.12 for the second.

LPHTAVCLVCGEAGKEDTVEEEEGKFNLMLMECSIFNEIIHPGCLKIKESEGVVNDELPNCWECPKC [C36F] and LPHTAVCLVCGEAGKEDTVEEEEGKFNLMLMECSITNEIIHPGCLKIKESEGVVNDELPNCWECPKC [C36T] are within error of each other in abundance fitness: -1.21 ± 0.43 for the first, -0.961 ± 0.26 for the second.

LPHTAVCLVCGEAGKEDTVEEEEGKFNLMLMECSIRNEIIHPGCLKIKESEGVVNDELPNCWECPKC [C36R] and LPHTAVCLVCGEAGKEDTVEEEEGKFNLMLMECSIHNEIIHPGCLKIKESEGVVNDELPNCWECPKC [C36H] are within error of each other in abundance fitness: -0.72 ± 0.091 for the first, -1.18 ± 0.43 for the second.

LPHTAVCLVCGEAGKEDTVEEEEGKFNLMLMECSIANEIIHPGCLKIKESEGVVNDELPNCWECPKC [C36A] and LPHTAVCLVCGEAGKEDTVEEEEGKFNLMLMECSISNEIIHPGCLKIKESEGVVNDELPNCWECPKC [C36S] are within error of each other in abundance fitness: -0.78 ± 0.16 for the first, -0.994 ± 0.22 for the second.

LPHTAVCLVCGEAGKEDTVEEEEGKFNLMLMECSINNEIIHPGCLKIKESEGVVNDELPNCWECPKC [C36N] and LPHTAVCLVCGEAGKEDTVEEEEGKFNLMLMECSILNEIIHPGCLKIKESEGVVNDELPNCWECPKC [C36L] are within error of each other in abundance fitness: -0.707 ± 0.24 for the first, -0.643 ± 0.18 for the second.

LPHTAVCLVCGEAGKEDTVEEEEGKFNLMLMECSIINEIIHPGCLKIKESEGVVNDELPNCWECPKC [C36I] and LPHTAVCLVCGEAGKEDTVEEEEGKFNLMLMECSIGNEIIHPGCLKIKESEGVVNDELPNCWECPKC [C36G] are within error of each other in abundance fitness: -0.477 ± 0.25 for the first, -0.794 ± 0.09 for the second.

LPHTAVCLVCGEAGKEDTVEEEEGKFNLMLMECSIENEIIHPGCLKIKESEGVVNDELPNCWECPKC [C36E] and LPHTAVCLVCGEAGKEDTVEEEEGKFNLMLMECSIDNEIIHPGCLKIKESEGVVNDELPNCWECPKC [C36D] are within error of each other in abundance fitness: -0.736 ± 0.14 for the first, -0.549 ± 0.26 for the second.

LPHTAVCLVCGEAGKEDTVEEEEGKFNLMLMECSIVNEIIHPGCLKIKESEGVVNDELPNCWECPKC [C36V] and LPHTAVCLVCGEAGKEDTVEEEEGKFNLMLMECSIMNEIIHPGCLKIKESEGVVNDELPNCWECPKC [C36M] are within error of each other in abundance fitness: -0.921 ± 0.13 for the first, -0.619 ± 0.21 for the second.

LPHTAVCLVCGEAGKEDTVEEEEGKFNLMLMERSICNEIIHPGCLKIKESEGVVNDELPNCWECPKC [C33R] and LPHTAVCLVCGEAGKEDTVEEEEGKFNLMLMETSICNEIIHPGCLKIKESEGVVNDELPNCWECPKC [C33T] are within error of each other in abundance fitness: -0.593 ± 0.12 for the first, -0.753 ± 0.19 for the second.

LPHTAVCLVCGEAGKEDTVEEEEGKFNLMLMEMSICNEIIHPGCLKIKESEGVVNDELPNCWECPKC [C33M] and LPHTAVCLVCGEAGKEDTVEEEEGKFNLMLMEGSICNEIIHPGCLKIKESEGVVNDELPNCWECPKC [C33G] are within error of each other in abundance fitness: -0.642 ± 0.14 for the first, -0.629 ± 0.1 for the second.

Going from LPHTAVCLVCGEAGKEDTVEEEEGKFNLMLMEVSICNEIIHPGCLKIKESEGVVNDELPNCWECPKC [C33V] to LPHTAVCLVCGEAGKEDTVEEEEGKFNLMLMEKSICNEIIHPGCLKIKESEGVVNDELPNCWECPKC [C33K], the abundance fitness rises from -1.24 ± 0.22 to -0.6 ± 0.17.

LPHTAVCLVCGEAGKEDTVEEEEGKFNLMLMEPSICNEIIHPGCLKIKESEGVVNDELPNCWECPKC [C33P] and LPHTAVCLVCGEAGKEDTVEEEEGKFNLMLMEQSICNEIIHPGCLKIKESEGVVNDELPNCWECPKC [C33Q] are within error of each other in abundance fitness: -0.729 ± 0.19 for the first, -0.581 ± 0.21 for the second.

LPHTAVCLVCGEAGKEDTVEEEEGKFNLMLMEASICNEIIHPGCLKIKESEGVVNDELPNCWECPKC [C33A] and LPHTAVCLVCGEAGKEDTVEEEEGKFNLMLMEWSICNEIIHPGCLKIKESEGVVNDELPNCWECPKC [C33W] are within error of each other in abundance fitness: -0.912 ± 0.2 for the first, -1.02 ± 0.27 for the second.

LPHTAVCLVCGEAGKEDTVEEEEGKFNLMLMEESICNEIIHPGCLKIKESEGVVNDELPNCWECPKC [C33E] and LPHTAVCLVCGEAGKEDTVEEEEGKFNLMLMEYSICNEIIHPGCLKIKESEGVVNDELPNCWECPKC [C33Y] are within error of each other in abundance fitness: -0.619 ± 0.14 for the first, -0.621 ± 0.44 for the second.

LPHTAVCLVCGEAGKEDTVEEEEGKFNLMLMENSICNEIIHPGCLKIKESEGVVNDELPNCWECPKC [C33N] and LPHTAVCLVCGEAGKEDTVEEEEGKFNLMLMESSICNEIIHPGCLKIKESEGVVNDELPNCWECPKC [C33S] are within error of each other in abundance fitness: -0.481 ± 0.29 for the first, -0.716 ± 0.22 for the second.

LPHTAVCLVCGEAGKEDTVEEEEGKFNLMLMELSICNEIIHPGCLKIKESEGVVNDELPNCWECPKC [C33L] and LPHTAVCLVCGEAGKEDTVEEEEGKFNLMLMEDSICNEIIHPGCLKIKESEGVVNDELPNCWECPKC [C33D] are within error of each other in abundance fitness: -0.765 ± 0.15 for the first, -0.852 ± 0.24 for the second.
